We go through 12 molecules from patent publication US20240270826A1 (NATIONAL RESEARCH COUNCIL OF CANADA, published 2024).

Usually Kd stands for a measure of binding affinity in units of concentration. By koff is commonly meant the first-order rate constant of dissociation. A high value points to fast dissociation. The kon is a measure of how fast the partners come together. Read a low kon as slower complex formation. The EC50 is the concentration needed to bring the measured effect to its halfway point. Lower therefore signals a more potent agent.

Assay [1] has as its target T1, SARS-CoV-2 spike trimer S (Wuhan, SmT1) (SARS-CoV-2 Wuhan).
T1 construct: extracellular domain
Briefly: SPR, antigen on chip. Background: In SPR one partner is held on a chip, and binding of the other changes the refractive index at the surface.

In assay [2] the target is T2, SARS-CoV-2 S1 (aa16-685) (Wuhan) (SARS-CoV-2 Wuhan, UniProt P0DTC2 16-685).
T2 construct: NRC; FLAG, 6xHis tags
The experiment in a line: SPR, antigen on chip.

The target of assay [3] is T3, SARS-CoV-2 S2 (aa686-1208) (Wuhan) (SARS-CoV-2 Wuhan, UniProt P0DTC2 686-1208).
T3 construct: NRC; FLAG, 6xHis tags
The experiment in a line: SPR, antigen on chip.

In assay [4] the target is SARS-CoV-2 S1-RBD fused to human Fc (S1-RBD-Fc) (SARS-CoV-2 Wuhan; human). The experiment in a line: SPR, antigen on chip.
The target in assay [5] is T3, SARS-CoV-2 S2 (aa686-1208) (Wuhan). The experiment in a line: ELISA.
For assay [6], the target named is T4, SARS-CoV-2 S on CHO-S cells (SARS-CoV-2, UniProt P0DTC2 14-1273).
T4 construct: whole, on cells
The experiment in a line: flow cytometry, CHO-S cells. Background: A flow cytometer gives signals particle by particle.

B1: NRCoV2-04 VHH (VHH)
VHH: AVQLVDSGGGLVQPGGSLRLSCAASGSPFSNVVMAWYRQAPGKQRERVAFISGGGIADYIMSVKGRFTISRDNAKNTVYLQMNSLKPEDTAVYYCWSSYESTWGQGTQVTVSS
In assay [1], B1 had a Kd of 10 nM, a koff of 0.0198 s⁻¹ and a kon of 1.97e+06 M⁻¹ s⁻¹. In assay [2], this molecule came in with a Kd of 11.2 nM, an off-rate (koff) of 0.018 s⁻¹ and a kon of 1.61e+06 M⁻¹ s⁻¹. Further, in assay [3], the binding result is reported as “no binding”. For the same molecule, in assay [4], binding was put at a Kd of 12.5 nM, the koff turned out to be 0.0192 s⁻¹ and the kon worked out at 1.53e+06 M⁻¹ s⁻¹.

B2: NRCoV2-05 VHH (VHH)
VHH: EVKLVQSGGGLVQPGGSLRLSCAASGFIFSNYAMNWVRQAPGKGLEWVSGINSGGGDTRYADSVKGRFTVSRDNAKNTLYLQMNSLKPEDTGVYYCSKGPVSSYYGSGYDYRGQGTQVTVSS
With B2, in assay [1], the Kd was determined as 1.72 nM, the koff was found to be 0.00743 s⁻¹ and the kon is 4.33e+06 M⁻¹ s⁻¹. Besides, in assay [2], binding was characterised by a dissociation constant (Kd) of 2 nM, the koff turned out to be 0.00806 s⁻¹ and the kon is 4.03e+06 M⁻¹ s⁻¹. In addition, in assay [3], the binding result is recorded as “no binding”. In assay [4], this molecule registered a Kd of 2.33 nM, a koff of 0.00585 s⁻¹ and a kon of 2.51e+06 M⁻¹ s⁻¹.

B3: NRCoV2-06 VHH (VHH)
VHH: EVQLVQSGGGLVQAGESLRLSCAASVSTFSSYAMGWYRQAPGKQRELVASIGFVGATYYIDSVKGRFTISRDNAKKTAYLQMNDLKPDDTAVYYCNARHYGGSEYWGQGTQVTVSS
Regarding B3, the Kd in assay [1] was determined as 155 nM; in assay [2], 129 nM; in assay [4], 69.9 nM. Also, the koff turned out to be 0.00469 s⁻¹ in assay [1], 0.0133 s⁻¹ in assay [2] and 0.00415 s⁻¹ in assay [4]. Further, the kon was 30200 M⁻¹ s⁻¹ in assay [1], 104000 M⁻¹ s⁻¹ in assay [2] and 59400 M⁻¹ s⁻¹ in assay [4]. Moreover, the binding result in assay [3] was “no binding”.

B4: NRCoV2-1d VHH (VHH)
VHH: EVQLVESGGGSVQPGGSLRLSCAASGSTLDYYAIGWFRQAPGKEREWVSSVSSSDGNTLYADSVKGRFTISRDNAKNTVYLQMNSLKAEDTAVYVCAADYSMRPFAVGRWHRDYEYWGQGTQVTVSS
For B4, in assay [1], the Kd amounted to 1.1 nM, the koff was determined as 0.00117 s⁻¹ and the kon came out at 1.06e+06 M⁻¹ s⁻¹. In assay [2], this molecule showed a Kd of 1.32 nM, a koff of 0.00114 s⁻¹ and a kon of 867000 M⁻¹ s⁻¹. Moreover, the binding result in assay [3] is “no binding”. In assay [4], this molecule had a Kd of 2.1 nM, a koff of 0.00118 s⁻¹ and a kon of 562000 M⁻¹ s⁻¹.

B5: NRCoV2-03 VHH (VHH)
VHH: EVQLVSSGGGLVQAGGSLRLSCTASGITFSYYAMGWYRQAPGQPRELVASMSNMDSTIYADSVKGRFTISRDNAKTTIYLQMNNLKPEDTAVYFCNIYGPTYSTRRNEYWGQGTQVTVSS
In assay [1], B5 showed a Kd of 1.34 nM, a koff of 0.000334 s⁻¹ and a kon of 250000 M⁻¹ s⁻¹. In assay [2], this molecule had a Kd of 1.09 nM, a dissociation rate constant (koff) of 0.000263 s⁻¹ and an association rate constant (kon) of 241000 M⁻¹ s⁻¹. Besides, the binding result in assay [3] is recorded as “no binding”. In assay [4], this molecule gave a Kd of 1.53 nM, a koff of 0.000255 s⁻¹ and a kon of 166000 M⁻¹ s⁻¹.

B6: NRCoV2-14 VHH (VHH)
VHH: EVQLVSSGGGLVQAGGSLRLSCEASGTTFSHYAVGWYRQAPGKQREWVASISVFGSTTYGGSVAGRFTISRDNDKNTVDLQMNSLKPEDTAVYYCHAVNADIGGDYWGQGTQVTVSS
Regarding B6, in assay [1], the Kd was found to be 3.1 nM, the koff worked out at 0.00164 s⁻¹ and the kon is 528000 M⁻¹ s⁻¹. In assay [2], this molecule displayed a Kd of 3.49 nM, a koff of 0.00112 s⁻¹ and a kon of 319000 M⁻¹ s⁻¹. The binding result in assay [3] is listed as “no binding”. Besides, in assay [4], the Kd came to 3.61 nM, the koff was found to be 0.000944 s⁻¹ and the kon was 261000 M⁻¹ s⁻¹.

B7: NRCoV2-15 VHH (VHH)
VHH: EVQLVSSGGGLVEAGGSLRLSCIASGSTSGRNTMGWFRQAPGKQREWVAIVSTSGATNYAGSVKGRFTLSRDNAKNAVYLQMNNLKPEDTAVYYCYAAYGGGGDYWGQGTQVTVSS
On to B7, for which, in assay [1], binding was put at a Kd of 0.313 nM, the koff came out at 0.000221 s⁻¹ and the kon is 706000 M⁻¹ s⁻¹. In assay [2], this molecule showed a Kd of 0.333 nM, a koff of 0.000225 s⁻¹ and a kon of 675000 M⁻¹ s⁻¹. In addition, the binding result in assay [3] is reported as “no binding”. In assay [4], this molecule registered a Kd of 0.342 nM, a koff of 0.000233 s⁻¹ and a kon of 682000 M⁻¹ s⁻¹.

B8: NRCoV2-07 VHH (VHH)
VHH: QVQLVQSGGGLVQPGGSLRLSCAASGVTLDYYAIGWFRQAPGKEREAVSCISSNGRRNHYVASVRGRFTISRDNAKSTVYLQMNSLKPEDTAVYYCAAVQDVHGDNYYCTSPNEYNVWGQGTQVTVSS
Consider B8, for which, in assay [1], binding was characterised by a dissociation constant (Kd) of 1.15 nM, the koff came out at 0.000403 s⁻¹ and the kon was 350000 M⁻¹ s⁻¹. In assay [2], the Kd was found to be 1.02 nM, the koff was determined as 0.000308 s⁻¹ and the on-rate (kon) is 301000 M⁻¹ s⁻¹. Moreover, in assay [3], the binding result is recorded as “no binding”. Further, in assay [4], binding was put at a Kd of 0.894 nM, the koff came out at 0.000284 s⁻¹ and the kon was 318000 M⁻¹ s⁻¹.

B9: NRCoV2-SR01 VHH-Fc (Fc fusion)
chain: EVQLVQSGGGSVQAGGSLRLSCVASGFTFDNYAIGWFRQAPGKEREGVSCISGNGGVTIYADSVKGRFTISRDNAKNLVYLQMNSLKPEDTAVYYCAATGIRSTWSVYGCSRLAGPYDYWGQGTQVTVSS
notes: bivalent VHH-Fc
Regarding B9, the binding result in assay [5] is on record as “no binding (tested: 13 nM)”. In assay [6], this molecule gave a Bmax of 15400 and an EC50 of 6.6 nM.

B10: NRCoV2-02 VHH (VHH)
VHH: EVQLVESGGGLVQAGGSLRLSCAASGFTFSNYAMNWVRQAPGKGLEWVSGISGRGDDTRYADSVKGRFTISRDNAKNTLFLQMRSLRPEDTGVYRCTKGPDLYYFGSGYSDRGQGTQVTVSS
Consider B10, for which, in assay [1], the affinity, expressed as Kd, was 0.661 nM; the koff came out at 0.00141 s⁻¹; the kon was 2.14e+06 M⁻¹ s⁻¹. Also, in assay [2], the Kd stood at 0.659 nM, the koff is 0.00138 s⁻¹ and the kon was 2.1e+06 M⁻¹ s⁻¹. In addition, the binding result in assay [3] is given as “no binding”. In assay [4], this molecule had a Kd of 0.773 nM, a koff of 0.00141 s⁻¹ and an association rate constant (kon) of 1.83e+06 M⁻¹ s⁻¹.

B11: NRCoV2-10 VHH (VHH)
VHH: QLQLQESGGGLVQPGGSLTLSCAASGNTFSRSNMHWYRQAPGAQREWVAAISSRGISTYAYSAKGRFTISRDNAKNTVSLQMNSLKPEDTAVYYCYAADDLGDYWGQGTQVTVSS
In the case of B11, in assay [1], the dissociation constant Kd stood at 0.192 nM, the dissociation rate constant (koff) was 9.27e-05 s⁻¹ and the on-rate (kon) amounted to 483000 M⁻¹ s⁻¹. In assay [2], this molecule displayed an equilibrium dissociation constant (Kd) of 0.213 nM, a koff of 9.54e-05 s⁻¹ and a kon of 448000 M⁻¹ s⁻¹. For the same molecule, in assay [3], the binding result is on record as “no binding”. In assay [4], this molecule had a Kd of 0.266 nM, an off-rate (koff) of 9.32e-05 s⁻¹ and an on-rate (kon) of 351000 M⁻¹ s⁻¹.

B12: NRCoV2-SR13 VHH-Fc (Fc fusion)
chain: EVQLVESGGGLVTTGGSLRLSCATSGSRFGSKHMAWYRQAPGKQRDLVAAISSGGSTHYGSSVKGRFTISRDNAKSTVYLQMNSLNPEDTAVFYCNMGGWDYRSNTYIPGSRSDYWGQGTQVTVSS
notes: bivalent VHH-Fc
On to B12, for which the binding result in assay [5] is listed as “no binding (tested: 13 nM)”. In assay [6], this molecule returned a Bmax of 17800 and an EC50 of 7 nM.
